The target in test [1] is IHF from Staphylococcus aureus (Staphylococcus aureus) (UniProt Q5HFV0). The experiment in a line: ELISA.
In test [2] the target is T1, IHF from Staphylococcus aureus (Staphylococcus aureus, UniProt Q5HFV0 1-90).
T1 construct: mature; not shown: poly-histidine tag
T1 sequence: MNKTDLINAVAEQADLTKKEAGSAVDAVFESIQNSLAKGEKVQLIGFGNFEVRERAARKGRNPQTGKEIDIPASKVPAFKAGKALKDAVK
The experiment in a line: ELISA on IHF from S. aureus (IHF-Sa ELISA), OD 450 nm against [mAb] nM. (In general: ELISA stands for enzyme-linked immunosorbent assay.)

Test [3] addresses T1, IHF from Staphylococcus aureus. Described as above. This is another data set of the same source.
Test [4] has the same target. The experiment in a line: ELISA at pH 6.5.
The target of test [5] is T2, IHF from Klebsiella pneumoniae (Klebsiella pneumoniae, UniProt A6TAI1 1-99).
T2 construct: also called IHF (Kp); K. pneumoniae
T2 sequence: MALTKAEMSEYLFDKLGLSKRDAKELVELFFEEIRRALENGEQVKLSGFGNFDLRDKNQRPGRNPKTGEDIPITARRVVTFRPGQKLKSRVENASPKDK
Description: ELISA at pH 6.5.

In test [6] the target is T3, IHF from Pseudomonas aeruginosa (Pseudomonas aeruginosa, UniProt Q51472 2-100).
T3 construct: mature; also called IHF (Pa); P. aeruginosa; not shown: poly-histidine tag
T3 sequence: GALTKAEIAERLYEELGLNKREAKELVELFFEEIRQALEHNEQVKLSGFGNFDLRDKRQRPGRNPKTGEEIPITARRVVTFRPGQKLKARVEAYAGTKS
The experiment in a line: ELISA at pH 6.5.

The target of test [7] is T1, IHF from Staphylococcus aureus. Description: ELISA at pH 2.5.
Test [8] has as its target T2, IHF from Klebsiella pneumoniae. The experiment in a line: ELISA at pH 2.5.
Test [9] deals with T3, IHF from Pseudomonas aeruginosa. The experiment in a line: ELISA at pH 2.5.
For test [10], the target named is T1, IHF from Staphylococcus aureus. Description: ELISA at pH 4.5.
Test [11] has as its target T2, IHF from Klebsiella pneumoniae. The experiment in a line: ELISA at pH 4.5.
In test [12] the target is T3, IHF from Pseudomonas aeruginosa. The experiment in a line: ELISA at pH 4.5.
The target in test [13] is T1, IHF from Staphylococcus aureus. The experiment in a line: ELISA at pH 3.5.
Test [14] concerns the target T2, IHF from Klebsiella pneumoniae. Description: ELISA at pH 3.5.
For test [15], the target named is T3, IHF from Pseudomonas aeruginosa. The experiment in a line: ELISA at pH 3.5.
The target of test [16] is T1, IHF from Staphylococcus aureus. The experiment in a line: ELISA at pH 7.5.
The target in test [17] is T2, IHF from Klebsiella pneumoniae. The experiment in a line: ELISA at pH 7.5.
Test [18] deals with T3, IHF from Pseudomonas aeruginosa. The experiment in a line: ELISA at pH 7.5.
In test [19] the target is T1, IHF from Staphylococcus aureus. The experiment in a line: ELISA at pH 5.5.
Test [20] deals with T2, IHF from Klebsiella pneumoniae. Description: ELISA at pH 5.5.
Test [21] addresses T3, IHF from Pseudomonas aeruginosa. Description: ELISA at pH 5.5.

Read-outs that look alike come from different tables or passages of the source.

B1: TRL1230 (antibody, V domains shown)
VH: QVQLVQSGGGLVKPGGSLRLSCGASGFNLSSYSMNWVRQAPGKGLEWVSSISSRSSYIYYADSVQGRFTISRDNAKNSLYLQMNSLRAEDTAIYYCARVSPSTYYYYGMDVWGQGTTVTVSS
VL: DIVLTQPSSVSVSPGQTARITCSGDELPKQYAYWYQQKPGQAPVLVIYKDNERPSGIPERFSGSSSGTTVTLTISGVQAEDEADYYCQSADSSGTYVVFGGGTKLTVL
The molecule B1 came in with an OD in test [1] of 0.1 OD.

B2: TRL1337 (antibody, V domains shown)
VH: QVQLLESGPGLVKPSETPSLTCTVSGGSIRSYYWSWIRQPPGKGLEWIGYIYYSGSTNYNPSLKSRVTISVDMSKNQFSLKLSSVTAADTAMYYCARVYGGSGSYDFDYWGQGTLVTVSS
VL: DIVLTQSPSASGSPGQSVTISCTGTSSDVGGYNYVSWYQQLPGKAPKLMIYEVTKRPSGVPDRFSGSKSGNTASLTVSGLQAEDEADYYCSSFAGSNNHVVFGGGTKLTVL
Turning to B2, the dissociation constant Kd in test [2] and in test [3] was 6 nM each time.

B3: TRL1338 (antibody, V domains shown)
VH: QLTLRESGPTLVKPTQTLTLTCTFSGFSLSTNGVGVGWIRQPPGKALEWLAIIYWDDDKRYSPSLKSRLTITKDTSKNQVVLTLTNMDPVDTGTYYCAHILGASNYWTGYLRYYFDYWGQGTLVTVST
VL: DIEMTQSPSVSVSPGQTARITCSGEPLAKQYAYWYQQKSGQAPVVVIYKDTERPSGIPERFSGSSSGTTVTLTISGVQAEDEADYHCESGDSSGTYPVFGGGTKLTVL
With B3, the dissociation constant (Kd) in test [2] and in [3] was 42 nM in each case.

B4: TRL1068 (antibody, V domains shown)
VH: QVQLVESGPGLVKPSETLSLTCRVSGDSNRPSYWSWIRQAPGKAMEWIGYVYDSGVTIYNPSLKGRVTISLDTSKTRFSLKLTSVIAADTAVYYCARERFDRTSYKSWWGQGTQVTVSS
VL: DIVLTQAPGTLSLSPGDRATLSCRASQRLGGTSLAWYQHRSGQAPRLILYGTSNRATDTPDRFSGSGSGTDFVLTISSLEPEDFAVYYCQQYGSPPYTFGQGTTLDIK
Regarding B4, the Affinity in test [4] came to 0.012 nM; in test [5], 6 pM; in test [6], 5 pM; in [7], 3.5 nM; in test [8], 2.6 nM; in [9] it was 2.1 nM. For the same molecule, the Affinity in test [10] amounted to 0.012 nM; in test [11], 0.05 nM; in test [12] it was 9 pM; in [13] it was 0.36 nM; in test [14], 3 nM; in [15] it was 0.26 nM. Besides, the Affinity is 0.01 nM in [16]; 6 pM in test [17]; 5 pM in test [18]; 0.012 nM in [19]; 9 pM in [20]; 6 pM in test [21].

A word on the Kd: it is the free concentration of one partner at which half of the binding sites on the other are occupied at equilibrium, for simple one-to-one binding. Read a low Kd as higher affinity.

The values above are taken from US20150299298A1 (TRELLIS BIOSCIENCE, published 2015).
